# According to patent US20140275490A1:
# Assays:
# human IL-23R (human) = human IL-23R (human) (UniProt Q5VWK5); experiment: cell-based or functional assay
# [1] = target: monkey IL-23R-mouse Fc fusion protein (monkey; mouse); experiment: antigen ELISA, monkey IL-23R-Fc immobilized, HRP anti-human IgG, chemiluminescence
# [2] = target: human IL-23R-mouse Fc fusion protein (human; mouse) (UniProt Q5VWK5); experiment: antigen ELISA, human IL-23R-Fc immobilized, HRP anti-human IgG, chemiluminescence
# Chain of human IL-23R-mouse Fc fusion protein (human; mouse) (Q5VWK5 24-353 L310P): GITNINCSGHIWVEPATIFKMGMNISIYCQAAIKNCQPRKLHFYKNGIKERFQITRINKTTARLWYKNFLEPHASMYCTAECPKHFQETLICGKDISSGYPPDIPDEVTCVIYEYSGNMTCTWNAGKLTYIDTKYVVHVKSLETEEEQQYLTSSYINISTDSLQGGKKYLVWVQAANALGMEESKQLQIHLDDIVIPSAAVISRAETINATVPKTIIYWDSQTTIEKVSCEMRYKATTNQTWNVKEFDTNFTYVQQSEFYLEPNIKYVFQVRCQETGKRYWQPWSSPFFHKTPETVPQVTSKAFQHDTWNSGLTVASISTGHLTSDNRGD
# Chain of human IL-23R (human) (Q5VWK5 24-629 L310P limits assumed): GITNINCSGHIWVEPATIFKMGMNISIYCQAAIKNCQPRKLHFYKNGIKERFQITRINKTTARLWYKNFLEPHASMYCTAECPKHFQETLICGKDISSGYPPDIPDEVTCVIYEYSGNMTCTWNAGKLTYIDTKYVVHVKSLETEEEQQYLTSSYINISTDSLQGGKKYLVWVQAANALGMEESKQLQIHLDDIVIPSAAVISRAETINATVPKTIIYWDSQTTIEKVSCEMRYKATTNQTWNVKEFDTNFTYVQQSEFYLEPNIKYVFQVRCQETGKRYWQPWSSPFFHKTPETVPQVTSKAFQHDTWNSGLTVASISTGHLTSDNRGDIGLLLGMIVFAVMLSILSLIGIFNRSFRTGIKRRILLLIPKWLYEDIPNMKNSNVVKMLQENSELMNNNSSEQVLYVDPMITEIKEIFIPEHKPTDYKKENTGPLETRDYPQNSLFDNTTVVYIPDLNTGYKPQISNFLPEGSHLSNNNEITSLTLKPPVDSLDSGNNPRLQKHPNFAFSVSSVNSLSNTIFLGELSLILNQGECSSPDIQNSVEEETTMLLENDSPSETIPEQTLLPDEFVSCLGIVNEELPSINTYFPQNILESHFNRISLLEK
binder,measurement,setting,value
"hum20D7 (antibody, from another filing, V domains shown) VH: QVQLVQSGAEVKKPGASVKVSCKASGYTFTNYAMNWVRQAPGQGLEWMGWINTYTGEPTYSDDFKGRVTFTLDTSTSTAYMELRSLRSDDTAVYYCARGGGYDEDYFDYWGQGTLVTVSS VL: DIVMTQSPLSLPVTPGEPASISCKSSQSLFNTINQKTYLAWYLQKPGQSPQLLIYFASTRESGVPDRFSGSGSGTDFTLKISRVEAEDVGVYYCQQHYDTPWTFGQGTKVEIKR","IC50, IL-23-stimulated STAT3 phosphorylation in CD4 lymphocytes of human whole blood",human IL-23R (human),0.01 µg/mL
same,"IC50, inhibition of human IL-23-inducible Kit-225 cell proliferation",human IL-23R (human),0.055 µg/mL
same,EC50,[1],> 10 µg/mL
same,EC50,[2],0.0485 µg/mL
